Numbering of substitutions follows the chain as printed.
Key:
Experiment in all cases: cell-based or functional assay
[1] = biological target: HIV Env of isolate MS208.A1 (clade A) (HIV)
[2] = biological target: HIV Env of isolate ZM249M.PL1 (clade C) (HIV)
[3] = biological target: HIV Env of isolate 6480.v4.c25 (clade CD) (HIV)
[4] = biological target: HIV Env of isolate 6811.v7.c18 (clade CD) (HIV)
[5] = biological target: HIV Env of isolate 6952.v1.c20 (clade CD) (HIV)
[6] = biological target: HIV Env of isolate Q23.17 (clade A) (HIV)
[7] = biological target: HIV Env of isolate P1981_C5_3 (clade G) (HIV)
[8] = biological target: HIV Env of isolate X1193_C1 (clade G) (HIV)
[9] = biological target: HIV Env of isolate X1254_C3 (clade G) (HIV)
[10] = biological target: HIV Env of isolate Q769.d22 (clade A) (HIV)
[11] = biological target: HIV Env of isolate 0815.v3.c3 (clade ACD) (HIV)
[12] = biological target: HIV Env of isolate 620345.c01 (clade AE) (HIV)
[13] = biological target: HIV Env of isolate BJOX025000.01.1 (clade AE) (HIV)
[14] = biological target: HIV Env of isolate C1080.c03 (clade AE) (HIV)
[15] = biological target: HIV Env of isolate R1166.c01 (clade AE) (HIV)
[16] = biological target: HIV Env of isolate T235-47 (clade AG) (HIV)
[17] = biological target: HIV Env of isolate T250-4 a.k.a. CRF250 (clade AG) (HIV)
[18] = biological target: HIV Env of isolate REJO4541.67 (clade B) (HIV)
[19] = biological target: HIV Env of isolate TRO.11 (clade B) (HIV)
[20] = biological target: HIV Env of isolate CNE20 (clade BC) (HIV)
[21] = biological target: HIV Env of isolate CNE30 (clade BC) (HIV)
[22] = biological target: HIV Env of isolate 191084B7-19 (clade A) (HIV)
[23] = biological target: HIV Env of isolate CNE53 (clade BC) (HIV)
[24] = biological target: HIV Env of isolate 246FC1G (clade C) (HIV)
[25] = biological target: HIV Env of isolate Ce1172_H1 (clade C) (HIV)
[26] = biological target: HIV Env of isolate Ce703010054_2A2 (clade C) (HIV)
[27] = biological target: HIV Env of isolate Du156.12 (clade C) (HIV)
[28] = biological target: HIV Env of isolate HIV-0013095-2.11 (clade C) (HIV)

B1: ePGDM13 (antibody, V domains shown)
VH: QAQLVQSGPEVRKPGTSVKVSCKNPGNTLTTYDLHWVRQVPGQGLQWMGWISHEGDKKVIVERFKAKVTIDWDRSTNTAYLQLSGLTSEDTAVYYCAKGSKHRLRDYALYDEDGALNWAVDVDYLANLEFWGQGTAVTVSS
VL: DIVLTQSPLSLSVTPGESASISCKSSHSLQHGDRNNYLAWYVQKPGRSPQLLLDLASERASGVPDRFSGSGSEKDFTLKISRVETEDVGTYYCMQGRESPWTFGQGTKVDIK
IC50 (µg/ml) with constrains [1]: 0.027 µg/mL
IC80 (µg/ml) with constrains [1]: 0.109 µg/mL
IC50 (µg/ml) with constrains [2]: 0.014 µg/mL
IC50 (µg/ml) with constrains [3]: > 100 µg/mL
IC50 (µg/ml) with constrains [4]: > 100 µg/mL
IC50 (µg/ml) with constrains [5]: 0.079 µg/mL
IC50 (µg/ml) with constrains [6]: 0.001 µg/mL
IC80 (µg/ml) with constrains [6]: 0.004 µg/mL
IC50 (µg/ml) with constrains [7]: 0.319 µg/mL
IC50 (µg/ml) with constrains [8]: 0.095 µg/mL
IC50 (µg/ml) with constrains [9]: 0.518 µg/mL
IC50 (µg/ml) with constrains [10]: 0.002 µg/mL
IC80 (µg/ml) with constrains [10]: 0.01 µg/mL
IC50 (µg/ml) with constrains [11]: > 100 µg/mL
IC80 (µg/ml) with constrains [11]: > 100 µg/mL
IC50 (µg/ml) with constrains [12]: > 100 µg/mL
IC80 (µg/ml) with constrains [12]: > 100 µg/mL
IC50 (µg/ml) with constrains [13]: 0.018 µg/mL
IC80 (µg/ml) with constrains [13]: 0.071 µg/mL
IC50 (µg/ml) with constrains [14]: 0.001 µg/mL
IC80 (µg/ml) with constrains [14]: 0.003 µg/mL
IC50 (µg/ml) with constrains [15]: 0.194 µg/mL
IC80 (µg/ml) with constrains [15]: 0.777 µg/mL
IC50 (µg/ml) with constrains [16]: 0.005 µg/mL
IC80 (µg/ml) with constrains [16]: 0.019 µg/mL
IC50 (µg/ml) with constrains [17]: 0.035 µg/mL
IC80 (µg/ml) with constrains [17]: 0.14 µg/mL
IC50 (µg/ml) with constrains [18]: 0.002 µg/mL
IC50 (µg/ml) with constrains [19]: 0.352 µg/mL
IC50 (µg/ml) with constrains [20]: 0.004 µg/mL
IC50 (µg/ml) with constrains [21]: > 100 µg/mL
IC50 (µg/ml) with constrains [22]: 0.001 µg/mL
IC80 (µg/ml) with constrains [22]: 0.003 µg/mL
IC50 (µg/ml) with constrains [23]: 0.015 µg/mL
IC50 (µg/ml) with constrains [24]: > 100 µg/mL
IC50 (µg/ml) with constrains [25]: 0.061 µg/mL
IC50 (µg/ml) with constrains [26]: 0.008 µg/mL
IC50 (µg/ml) with constrains [27]: 0.006 µg/mL
IC50 (µg/ml) with constrains [28]: > 100 µg/mL

B2: PGDM1400 (antibody, V domains shown)
VH: B1 VH with A2V, Q3H, V5T, N24A, T30K, Q39S, E89G, E112D, A126S
VL: B1 VL with I2F, L9H, Q30I, L53I, D54Y, E58S, E73D
IC50 (µg/ml) with constrains [1]: 0.01 µg/mL
IC80 (µg/ml) with constrains [1]: 0.041 µg/mL
IC50 (µg/ml) with constrains [2]: 0.025 µg/mL
IC50 (µg/ml) with constrains [3]: > 100 µg/mL
IC50 (µg/ml) with constrains [4]: > 100 µg/mL
IC50 (µg/ml) with constrains [5]: 1.76 µg/mL
IC50 (µg/ml) with constrains [6]: 0.001 µg/mL
IC80 (µg/ml) with constrains [6]: 0.005 µg/mL
IC50 (µg/ml) with constrains [7]: 18.9 µg/mL
IC50 (µg/ml) with constrains [8]: 0.094 µg/mL
IC50 (µg/ml) with constrains [9]: 45.4 µg/mL
IC50 (µg/ml) with constrains [10]: 0.007 µg/mL
IC80 (µg/ml) with constrains [10]: 0.028 µg/mL
IC50 (µg/ml) with constrains [11]: > 100 µg/mL
IC80 (µg/ml) with constrains [11]: > 100 µg/mL
IC50 (µg/ml) with constrains [12]: > 100 µg/mL
IC80 (µg/ml) with constrains [12]: > 100 µg/mL
IC50 (µg/ml) with constrains [13]: 0.055 µg/mL
IC80 (µg/ml) with constrains [13]: 0.22 µg/mL
IC50 (µg/ml) with constrains [14]: 0.001 µg/mL
IC80 (µg/ml) with constrains [14]: 0.005 µg/mL
IC50 (µg/ml) with constrains [15]: 1.48 µg/mL
IC80 (µg/ml) with constrains [15]: 5.92 µg/mL
IC50 (µg/ml) with constrains [16]: 0.011 µg/mL
IC80 (µg/ml) with constrains [16]: 0.044 µg/mL
IC50 (µg/ml) with constrains [17]: 0.28 µg/mL
IC80 (µg/ml) with constrains [17]: 1.12 µg/mL
IC50 (µg/ml) with constrains [18]: 0.004 µg/mL
IC50 (µg/ml) with constrains [19]: 0.206 µg/mL
IC50 (µg/ml) with constrains [20]: 0.005 µg/mL
IC50 (µg/ml) with constrains [21]: > 100 µg/mL
IC50 (µg/ml) with constrains [22]: 0.002 µg/mL
IC80 (µg/ml) with constrains [22]: 0.008 µg/mL
IC50 (µg/ml) with constrains [23]: 0.026 µg/mL
IC50 (µg/ml) with constrains [24]: > 100 µg/mL
IC50 (µg/ml) with constrains [25]: 0.218 µg/mL
IC50 (µg/ml) with constrains [26]: 0.014 µg/mL
IC50 (µg/ml) with constrains [27]: 0.006 µg/mL
IC50 (µg/ml) with constrains [28]: > 100 µg/mL

B3: ePGDM9 (antibody, V domains shown)
VH: B1 VH
VL: B1 VL with H27Q, Q30I, L53I, E73R
IC50 (µg/ml) with constrains [1]: 0.009 µg/mL
IC80 (µg/ml) with constrains [1]: 0.036 µg/mL
IC50 (µg/ml) with constrains [2]: 0.002 µg/mL
IC50 (µg/ml) with constrains [3]: > 100 µg/mL
IC50 (µg/ml) with constrains [4]: > 100 µg/mL
IC50 (µg/ml) with constrains [5]: 0.052 µg/mL
IC80 (µg/ml) with constrains [6]: 0.002 µg/mL
IC50 (µg/ml) with constrains [7]: 0.146 µg/mL
IC50 (µg/ml) with constrains [8]: 0.039 µg/mL
IC50 (µg/ml) with constrains [9]: 0.178 µg/mL
IC50 (µg/ml) with constrains [10]: 0.002 µg/mL
IC80 (µg/ml) with constrains [10]: 0.009 µg/mL
IC50 (µg/ml) with constrains [11]: > 100 µg/mL
IC80 (µg/ml) with constrains [11]: > 100 µg/mL
IC50 (µg/ml) with constrains [12]: > 100 µg/mL
IC80 (µg/ml) with constrains [12]: > 100 µg/mL
IC50 (µg/ml) with constrains [13]: 0.018 µg/mL
IC80 (µg/ml) with constrains [13]: 0.072 µg/mL
IC50 (µg/ml) with constrains [14]: 0.001 µg/mL
IC80 (µg/ml) with constrains [14]: 0.004 µg/mL
IC50 (µg/ml) with constrains [15]: 0.215 µg/mL
IC80 (µg/ml) with constrains [15]: 0.86 µg/mL
IC50 (µg/ml) with constrains [16]: 0.004 µg/mL
IC80 (µg/ml) with constrains [16]: 0.017 µg/mL
IC50 (µg/ml) with constrains [17]: 0.041 µg/mL
IC80 (µg/ml) with constrains [17]: 0.163 µg/mL
IC50 (µg/ml) with constrains [18]: 0.001 µg/mL
IC50 (µg/ml) with constrains [19]: 0.163 µg/mL
IC50 (µg/ml) with constrains [20]: 0.002 µg/mL
IC50 (µg/ml) with constrains [21]: > 100 µg/mL
IC50 (µg/ml) with constrains [22]: 0.002 µg/mL
IC80 (µg/ml) with constrains [22]: 0.006 µg/mL
IC50 (µg/ml) with constrains [23]: 0.007 µg/mL
IC50 (µg/ml) with constrains [24]: > 100 µg/mL
IC50 (µg/ml) with constrains [25]: 0.027 µg/mL
IC50 (µg/ml) with constrains [26]: 0.008 µg/mL
IC50 (µg/ml) with constrains [27]: 0.004 µg/mL
IC50 (µg/ml) with constrains [28]: > 100 µg/mL

B4: ePGDM5 (antibody, V domains shown)
VH: B1 VH
VL: B1 VL with I2F, S26D, L53I, E73R, S81D, T85A
IC50 (µg/ml) with constrains [1]: 0.007 µg/mL
IC80 (µg/ml) with constrains [1]: 0.029 µg/mL
IC50 (µg/ml) with constrains [2]: 0.035 µg/mL
IC50 (µg/ml) with constrains [3]: > 100 µg/mL
IC50 (µg/ml) with constrains [4]: > 100 µg/mL
IC50 (µg/ml) with constrains [5]: 0.033 µg/mL
IC50 (µg/ml) with constrains [6]: 0.001 µg/mL
IC80 (µg/ml) with constrains [6]: 0.004 µg/mL
IC50 (µg/ml) with constrains [7]: 0.295 µg/mL
IC50 (µg/ml) with constrains [8]: 0.039 µg/mL
IC50 (µg/ml) with constrains [9]: 0.217 µg/mL
IC50 (µg/ml) with constrains [10]: 0.003 µg/mL
IC80 (µg/ml) with constrains [10]: 0.011 µg/mL
IC50 (µg/ml) with constrains [11]: > 100 µg/mL
IC80 (µg/ml) with constrains [11]: > 100 µg/mL
IC50 (µg/ml) with constrains [12]: > 100 µg/mL
IC80 (µg/ml) with constrains [12]: > 100 µg/mL
IC50 (µg/ml) with constrains [13]: 0.018 µg/mL
IC80 (µg/ml) with constrains [13]: 0.072 µg/mL
IC50 (µg/ml) with constrains [14]: 0.003 µg/mL
IC80 (µg/ml) with constrains [14]: 0.011 µg/mL
IC50 (µg/ml) with constrains [15]: 0.166 µg/mL
IC80 (µg/ml) with constrains [15]: 0.664 µg/mL
IC50 (µg/ml) with constrains [16]: 0.005 µg/mL
IC80 (µg/ml) with constrains [16]: 0.022 µg/mL
IC50 (µg/ml) with constrains [17]: 0.065 µg/mL
IC80 (µg/ml) with constrains [17]: 0.261 µg/mL
IC50 (µg/ml) with constrains [18]: 0.001 µg/mL
IC50 (µg/ml) with constrains [19]: 0.315 µg/mL
IC50 (µg/ml) with constrains [20]: 0.004 µg/mL
IC50 (µg/ml) with constrains [21]: > 100 µg/mL
IC50 (µg/ml) with constrains [22]: 0.001 µg/mL
IC80 (µg/ml) with constrains [22]: 0.005 µg/mL
IC50 (µg/ml) with constrains [23]: 0.02 µg/mL
IC50 (µg/ml) with constrains [24]: > 100 µg/mL
IC50 (µg/ml) with constrains [25]: 0.016 µg/mL
IC50 (µg/ml) with constrains [26]: 0.008 µg/mL
IC50 (µg/ml) with constrains [27]: 0.006 µg/mL
IC50 (µg/ml) with constrains [28]: > 100 µg/mL

From patent US20230134571A1 (INTERNATIONAL AIDS VACCINE INITIATIVE, published 2023)
